In article doi:10.1101/2022.04.02.486817:

How the values were obtained:
AP2 α-appendage = AP2 α-appendage (UniProt P17427); assay: ITC
Cμ2 = Cμ2 (UniProt P84092); assay: ITC
GST-TGN38 = GST-TGN38 (UniProt P19814); assay: BLI
Sequence of GST-TGN38 (P19814 325-357): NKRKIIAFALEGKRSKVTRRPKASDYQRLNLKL

Sequence of AP2 α-appendage (P17427 702-938): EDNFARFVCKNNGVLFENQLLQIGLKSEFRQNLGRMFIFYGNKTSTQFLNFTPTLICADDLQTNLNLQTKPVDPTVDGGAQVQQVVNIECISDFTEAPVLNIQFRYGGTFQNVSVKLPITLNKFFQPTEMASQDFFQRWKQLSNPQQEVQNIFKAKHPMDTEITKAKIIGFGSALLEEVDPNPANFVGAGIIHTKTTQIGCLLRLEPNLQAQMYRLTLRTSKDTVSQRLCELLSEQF
Sequence of Cμ2 (P84092 158-435): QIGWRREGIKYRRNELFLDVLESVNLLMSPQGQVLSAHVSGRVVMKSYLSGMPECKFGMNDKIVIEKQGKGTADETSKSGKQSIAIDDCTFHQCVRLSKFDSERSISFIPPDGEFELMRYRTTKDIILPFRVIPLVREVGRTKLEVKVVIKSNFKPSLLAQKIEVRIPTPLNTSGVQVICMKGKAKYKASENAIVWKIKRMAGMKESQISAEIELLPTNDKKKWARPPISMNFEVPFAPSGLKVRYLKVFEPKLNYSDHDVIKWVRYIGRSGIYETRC
Sequence of AP2:β2FCHO2-N3+C (P62743 whole entry, looked up, tested part not stated): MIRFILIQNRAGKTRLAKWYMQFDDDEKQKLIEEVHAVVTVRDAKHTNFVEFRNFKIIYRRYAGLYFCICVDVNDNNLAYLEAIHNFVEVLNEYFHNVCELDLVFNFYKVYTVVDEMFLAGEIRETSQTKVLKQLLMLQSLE
Sequence of AP2:β2FCHO2-N3+C (P84092 whole entry, looked up, tested part not stated): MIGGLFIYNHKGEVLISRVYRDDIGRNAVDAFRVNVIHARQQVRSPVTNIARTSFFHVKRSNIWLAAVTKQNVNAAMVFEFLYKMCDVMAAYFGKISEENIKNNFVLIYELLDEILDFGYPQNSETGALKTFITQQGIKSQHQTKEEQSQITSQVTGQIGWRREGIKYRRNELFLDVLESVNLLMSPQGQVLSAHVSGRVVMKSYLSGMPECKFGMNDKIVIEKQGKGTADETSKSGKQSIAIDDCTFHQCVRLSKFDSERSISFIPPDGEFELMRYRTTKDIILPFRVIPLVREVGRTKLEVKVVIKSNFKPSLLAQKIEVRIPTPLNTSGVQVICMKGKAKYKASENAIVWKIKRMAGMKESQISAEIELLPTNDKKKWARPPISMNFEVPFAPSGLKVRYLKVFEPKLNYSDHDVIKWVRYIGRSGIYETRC
Sequence of AP2:β2FCHO2-N3+C (P18484 whole entry, looked up, tested part not stated): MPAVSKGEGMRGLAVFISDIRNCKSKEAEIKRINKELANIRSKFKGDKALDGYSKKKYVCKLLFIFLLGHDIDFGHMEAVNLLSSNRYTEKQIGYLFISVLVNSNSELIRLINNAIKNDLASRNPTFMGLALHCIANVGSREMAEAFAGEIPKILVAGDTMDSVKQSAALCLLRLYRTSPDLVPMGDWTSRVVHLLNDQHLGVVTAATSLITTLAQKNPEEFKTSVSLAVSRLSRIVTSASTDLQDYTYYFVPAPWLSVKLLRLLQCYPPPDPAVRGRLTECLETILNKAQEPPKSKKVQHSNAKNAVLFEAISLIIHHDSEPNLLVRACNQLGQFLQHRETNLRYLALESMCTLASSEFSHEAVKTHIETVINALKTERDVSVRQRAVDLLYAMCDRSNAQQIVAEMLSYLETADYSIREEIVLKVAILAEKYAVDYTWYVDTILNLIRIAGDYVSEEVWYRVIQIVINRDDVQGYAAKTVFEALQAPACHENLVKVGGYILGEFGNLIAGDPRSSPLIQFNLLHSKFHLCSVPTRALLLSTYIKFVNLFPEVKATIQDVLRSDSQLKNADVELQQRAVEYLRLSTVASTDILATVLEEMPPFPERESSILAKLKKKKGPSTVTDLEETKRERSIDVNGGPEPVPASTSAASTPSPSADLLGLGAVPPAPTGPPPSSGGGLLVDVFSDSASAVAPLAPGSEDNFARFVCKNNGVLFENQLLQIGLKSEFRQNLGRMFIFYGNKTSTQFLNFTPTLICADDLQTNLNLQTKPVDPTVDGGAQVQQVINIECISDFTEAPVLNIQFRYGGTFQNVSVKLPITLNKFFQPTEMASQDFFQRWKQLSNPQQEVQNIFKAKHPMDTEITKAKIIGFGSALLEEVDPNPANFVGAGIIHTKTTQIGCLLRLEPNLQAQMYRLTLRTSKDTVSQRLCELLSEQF

Substance | Kd (AP2 α-appendage) | further results
FCHO1 C block LEStoAAA (from UniProt O14526 427-448) (peptide) | > 500 µM | 
FCHO1 C block PPtoGG (from UniProt O14526 427-448) (peptide) | > 500 µM | 
FCHO2 N1+N2 E320A+E321A+K326A (domain or fragment) |  | fold reduction of binding against the wild type (Cμ2): 5 fold
FCHO1 C block FGtoAA (from UniProt O14526 427-448) (peptide) | > 500 µM | 
AP2:β2FCHO2-N3+C (from UniProt P18484 1-938; P84092 1-435; P62743 1-142) (complex) |  | fold tighter binding than AP2 core (GST-TGN38): 3 fold
